In this test the target is HIV-1 Clade B Env RHPA on pseudotyped virus (HIV-1). The experiment in a line: competition ELISA on coated RHPA pseudovirus; competitors: sera of MLA092- and MLA025-immunized mice diluted 1:400. Background: In an ELISA, binding on a coated surface is turned into a signal by an enzyme label.

In turn, “10E8 broadly neutralizing human anti-HIV-1 Env monoclonal antibody” gave a concentration that completely inhibited the binding of sera of 2 µg/mL.

(Values after US20240131147A1.)
